Experimental data published in article PMC12804832.

Target: T1, Msn2 DBD (Saccharomyces cerevisiae, UniProt P33748 643-704)
T1 sequence: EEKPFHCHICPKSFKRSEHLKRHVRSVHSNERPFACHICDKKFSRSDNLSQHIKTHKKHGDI
Assay: EMSA

B1: 51 bp DNA without motif (dsDNA)
DNA 1: CCTGCCACCTACACATACTTCCTACACAACCTGAGTCGTATTAATTTCGCG
DNA 2: CGCGAAATTATACGACTCAAGTTGTGTAGGAAGTATGTGTAGGTGGCGAGG
B1: no binding.
